Laboratory results taken from publication PMC5292684, “High affinity anchoring of the decoration protein pb10 onto the bacteriophage T5 capsid” (Scientific Reports, 2017).

B1: decoration protein pb10 of bacteriophage T5, full-length, fused to a C-terminal histidine tag (natural protein, UniProt Q6QGD6 1-164, looked up)
chain: MIDYSGLRTIFGEKLPESHIFFATVAAHKYVPSYAFLRRELGLSSAHTNRKVWKKFVEAYGKAIPPAPPAPPLTLSKDLTASMSVEEGAALTLSVTATGGTGPYTYAWTKDGSPIPDASGATYTKPTAAAEDAGSYKVTVTDSKQVSKDSTTCAVTVNPTVPGG
notes: decoration protein pb10 of bacteriophage T5, 164 amino acids, GenBank AAU05286; Monomer by SEC-MALLS (17 kDa); 18.3 kDa with the His tag; also called pb10-His; His-tagged pb10; source: pET28b expression vector, purified (expression and purification detailed in SI); not shown: His-Tag, C-terminal, kept
B2: pb10 F36A-R38E (natural protein)
chain: MIDYSGLRTIFGEKLPESHIFFATVAAHKYVPSYAALERELGLSSAHTNRKVWKKFVEAYGKAIPPAPPAPPLTLSKDLTASMSVEEGAALTLSVTATGGTGPYTYAWTKDGSPIPDASGATYTKPTAAAEDAGSYKVTVTDSKQVSKDSTTCAVTVNPTVPGG
B3: pb10 R38E (natural protein)
chain: MIDYSGLRTIFGEKLPESHIFFATVAAHKYVPSYAFLERELGLSSAHTNRKVWKKFVEAYGKAIPPAPPAPPLTLSKDLTASMSVEEGAALTLSVTATGGTGPYTYAWTKDGSPIPDASGATYTKPTAAAEDAGSYKVTVTDSKQVSKDSTTCAVTVNPTVPGG
B4: pb10 F36A-R38A (natural protein)
chain: MIDYSGLRTIFGEKLPESHIFFATVAAHKYVPSYAALARELGLSSAHTNRKVWKKFVEAYGKAIPPAPPAPPLTLSKDLTASMSVEEGAALTLSVTATGGTGPYTYAWTKDGSPIPDASGATYTKPTAAAEDAGSYKVTVTDSKQVSKDSTTCAVTVNPTVPGG
B5: pb10 R38A (natural protein)
chain: MIDYSGLRTIFGEKLPESHIFFATVAAHKYVPSYAFLARELGLSSAHTNRKVWKKFVEAYGKAIPPAPPAPPLTLSKDLTASMSVEEGAALTLSVTATGGTGPYTYAWTKDGSPIPDASGATYTKPTAAAEDAGSYKVTVTDSKQVSKDSTTCAVTVNPTVPGG
B6: pb10 F36A (natural protein)
chain: MIDYSGLRTIFGEKLPESHIFFATVAAHKYVPSYAALRRELGLSSAHTNRKVWKKFVEAYGKAIPPAPPAPPLTLSKDLTASMSVEEGAALTLSVTATGGTGPYTYAWTKDGSPIPDASGATYTKPTAAAEDAGSYKVTVTDSKQVSKDSTTCAVTVNPTVPGG
B7: pb10 Y34A-R38E (natural protein)
chain: MIDYSGLRTIFGEKLPESHIFFATVAAHKYVPSAAFLERELGLSSAHTNRKVWKKFVEAYGKAIPPAPPAPPLTLSKDLTASMSVEEGAALTLSVTATGGTGPYTYAWTKDGSPIPDASGATYTKPTAAAEDAGSYKVTVTDSKQVSKDSTTCAVTVNPTVPGG
B8: major capsid protein pb8 of bacteriophage T5 (natural protein, UniProt Q6QGD8 160-458, looked up)
chain: AVNQSSSVEVSSESYETIFSQRIIRDLQKELVVGALFEELPMSSKILTMLVEPDAGKATWVAASTYGTDTTTGEEVKGALKEIHFSTYKLAAKSFITDETEEDAIFSLLPLLRKRLIEAHAVSIEEAFMTGDGSGKPKGLLTLASEDSAKVVTEAKADGSVLVTAKTISKLRRKLGRHGLKLSKLVLIVSMDAYYDLLEDEEWQDVAQVGNDSVKLQGQVGRIYGLPVVVSEYFPAKANSAEFAVIVYKDNFVMPRQRAVTVERERQAGKQRDAYYVTQRVNLQRYFANGVVSGTYAAS
notes: major capsid protein (head protein) pb8 of bacteriophage T5, after its N-terminal scaffolding domain is cleaved off by the protease pb11; as a hexamer of the expanded capsid; Hexamer within the capsid lattice; the deposited model 5TJT is a homology model flexibly fitted into the cryo-EM map; also called head protein
B9: pb10 N-terminal domain (NTD), residues 1 to 77 (domain or fragment)
chain: MIDYSGLRTIFGEKLPESHIFFATVAAHKYVPSYAFLRRELGLSSAHTNRKVWKKFVEAYGKAIPPAPPAPPLTLSK

Assays:
[1] = target: bacteriophage T5 empty expanded capsid (without pb10) (bacteriophage T5); experiment: SPR; as a3 but PBS containing 500 mM NaCl; koff set at 2 x 10^-4 s^-1; single experiment
Target sequence in this assay (Q6QGD5 11-403 limits assumed): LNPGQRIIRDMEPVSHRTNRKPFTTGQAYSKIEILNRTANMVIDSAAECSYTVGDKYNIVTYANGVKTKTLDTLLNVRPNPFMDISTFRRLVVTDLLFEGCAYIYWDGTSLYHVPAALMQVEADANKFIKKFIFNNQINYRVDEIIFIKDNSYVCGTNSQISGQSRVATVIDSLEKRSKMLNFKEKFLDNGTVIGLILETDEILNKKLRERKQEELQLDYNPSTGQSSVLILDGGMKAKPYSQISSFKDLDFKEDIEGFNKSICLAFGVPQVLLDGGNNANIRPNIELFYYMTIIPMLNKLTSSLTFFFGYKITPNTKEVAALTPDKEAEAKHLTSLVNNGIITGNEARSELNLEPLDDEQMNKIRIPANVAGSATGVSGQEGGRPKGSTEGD

[2] = target: bacteriophage T5 empty expanded capsid (without pb10) (bacteriophage T5); experiment: SPR; as a3 but PBS containing 300 mM NaCl; koff set at 2 x 10^-4 s^-1; single experiment
Target sequence in this assay (Q6QGD5 11-403 limits assumed): as above

[3] = target: bacteriophage T5 empty expanded capsid (without pb10) (bacteriophage T5); experiment: SPR; T200, 25 °C, PBS (137 mM NaCl) with 1 mg/mL BSA; expanded capsids captured on a CM5 chip through immobilised rabbit anti-capsid antibodies; pb10 variants 0.09 to 40 nM injected at 50 uL/min; koff set at 2 x 10^-4 s^-1 for all proteins; global fit to a Langmuir mass transport-limited model
[4] = target: bacteriophage T5 empty expanded capsid (without pb10) (bacteriophage T5); experiment: SPR; as a3 but PBS containing 750 mM NaCl; koff set at 2 x 10^-4 s^-1; single experiment
Target sequence in this assay (Q6QGD5 11-403 limits assumed): as above

[5] = target: B8; experiment: cryo-EM structure; icosahedral reconstructions of empty expanded capsids with pb10 (9 Å) and without pb10 (8 Å); pb8 homology model fitted into the hexamer density; settings: both partners purified
[6] = target: the molecule itself; experiment: as above

Binder	Kd [3]	koff [3]	kon [3]	also measured
B1	1.11 pM	0.0002 s⁻¹	1.8e+08 M⁻¹ s⁻¹	Kd [1]: 4.2 pM; koff [1]: 0.0002 s⁻¹; kon [1]: 4.76e+07 M⁻¹ s⁻¹; Kd [2]: 1.8 pM; koff [2]: 0.0002 s⁻¹; kon [2]: 1.11e+08 M⁻¹ s⁻¹; maximum mass increase of the capsid on decoration [3]: 8%; signal decrease over 700 s of dissociation [3]: 7%; Kd [4]: 0.0222 nM; koff [4]: 0.0002 s⁻¹; kon [4]: 9.01e+06 M⁻¹ s⁻¹; binding result [5]: binds
B2	10.3 pM	0.0002 s⁻¹	1.95e+07 M⁻¹ s⁻¹	–
B3	2.36 pM	0.0002 s⁻¹	8.47e+07 M⁻¹ s⁻¹	–
B4	3.27 pM	0.0002 s⁻¹	6.11e+07 M⁻¹ s⁻¹	–
B5	1.67 pM	0.0002 s⁻¹	1.2e+08 M⁻¹ s⁻¹	–
B6	0.23 pM	0.0002 s⁻¹	8.66e+08 M⁻¹ s⁻¹	–
B7	480 pM	0.0002 s⁻¹	417000 M⁻¹ s⁻¹	–
B8	–	–	–	stoichiometry N [6]: 6
B9	0.55 pM	0.0002 s⁻¹	3.62e+08 M⁻¹ s⁻¹	–
